For assay [1], the target named is JAK1 kinase domain (JH1) (Homo sapiens) (UniProt P23458). The experiment in a line: cell-based or functional assay.
Assay [2] deals with JAK1-Y1034 phosphopeptide with an alanine substitution at the +3 position (UniProt P23458). Put plainly: ITC. On the technique in general: Isothermal titration calorimetry measures the heat released or taken up as one component is titrated into another.
Assay [3] addresses phosphopeptide corresponding to Tyr1034 within the JAK1 kinase domain activation loop (UniProt P23458). The experiment in a line: ITC.

As usually defined, the Kd is the equilibrium constant for the complex coming apart. Lower therefore signals higher affinity.

“hCIS-SH2-BC complex (recombinant trimeric complex of human GST-CIS-SH2 construct with Elongins B and C) (from UniProt Q9NSE2 66-258; Q15370 1-118; Q15369 17-112)”: in assay [1], the efficiency of JAK1 JH1 kinase inhibition relative to SOCS1 stood at 100 fold lower and the fold selectivity of kinase inhibition, JAK1 against JAK2, JAK3 or TYK2 (JH1 domains) was over 20 fold.
In the case of “human CIS lacking both the N-terminal region and the PEST motif (ΔNT/ΔPEST), trimeric complex with elongins B and C (from UniProt Q9NSE2 67-258; Q15370 1-118; Q15369 17-112)”, in assay [2], the fold reduction of binding against the wild-type JAK1-Y1034 phosphopeptide stood at 4 fold.
“human CIS lacking the N-terminal 34 residues (ΔN34), trimeric complex with elongins B and C (from UniProt Q9NSE2 35-258; Q15370 1-118; Q15369 17-112)” came in with a Kd in assay [3] of 2.2 to 10 µM.
